Test results taken from article PMC13006735 (Research, 2026).

Target: Sudan virus (SUDV) glycoprotein GP (Sudan ebolavirus, strain  for …, UniProt Q7T9D9)
Assay: SPR
Details: both partners purified

Binder	Kd
 (antibody, V domains shown, also called H27Q/S52Y/G66R-LC variant) VH: EVQLVESGGGLVKPGGSLRLSCAASGFTFSNAWMSWVRQAPGKGLEWVGRIKSKTDGGTIDYAAPVKGRFTISRDDSKNTVYLQMTSLKTEDTAVYYCTTYTEDMRYFDWLLRGGETFDYWGQGTLVTVSS VL: DIRLTQSPSSLSASVGDRVTITCRASQYISTYLNWYQQKPGKAPKLLIYAAYNLQSGVPSRFSGSRFGTDFSLTISSLQPEDFATYHCQQSYSTPGRYTFGQGTKVEIK	0.349 nM
 (antibody, V domains shown, also called A50Y/S52Y/L54R-LC variant) VH: EVQLVESGGGLVKPGGSLRLSCAASGFTFSNAWMSWVRQAPGKGLEWVGRIKSKTDGGTIDYAAPVKGRFTISRDDSKNTVYLQMTSLKTEDTAVYYCTTYTEDMRYFDWLLRGGETFDYWGQGTLVTVSS VL: DIRLTQSPSSLSASVGDRVTITCRASHYISTYLNWYQQKPGKAPKLLIYYAYNRQSGVPSRFSGSGFGTDFSLTISSLQPEDFATYHCQQSYSTPGRYTFGQGTKVEIK	0.248 nM
